Laboratory results from patent US20230250164A1 (AB2 BIO, published 2023).
Residue numbers refer to the chain shown, from its start.

T1: IL-18/IL-18BP complex (human, UniProt Q14116 37-193)
T1 construct: In the third screening step: Luminex beads linked to IL-18BP and then complexed to IL-18; also called IL-18 previously complexed to IL-18BP; complex IL-18/IL-18BP
T1 sequence 1: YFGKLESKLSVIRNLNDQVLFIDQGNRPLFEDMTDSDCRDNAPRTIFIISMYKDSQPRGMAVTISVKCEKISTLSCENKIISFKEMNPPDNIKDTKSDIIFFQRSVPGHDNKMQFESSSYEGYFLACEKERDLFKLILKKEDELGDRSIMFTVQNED
T1 sequence 2: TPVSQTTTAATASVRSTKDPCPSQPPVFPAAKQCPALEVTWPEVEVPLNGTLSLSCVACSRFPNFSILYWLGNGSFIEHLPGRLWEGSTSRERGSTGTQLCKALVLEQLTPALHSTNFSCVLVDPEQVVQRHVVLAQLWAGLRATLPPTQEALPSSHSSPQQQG

T2: human interleukin-18 (IL-18), recombinant (human, UniProt Q14116 37-193)
T2 construct: Commercial recombinant human IL-18; also called human IL-18; free IL-18
T2 sequence (looked up): T1 sequence 1

B1: Antibody 107C6 (antibody, V domains shown)
VH: QIQLVQSGPELKKPGETVKLSCRASGYTFTNYGMNWVKQAPGKGLKWMGWINTYSGVPTYADDFKGQFAFSLETSAATAFLQINNLKDEDTATYFCAREGYSTTRSMDYWGQGTSVTVSS
VL: DIVMSQSPSSLAVSAGEKVTMSCKSSQSLLDSRTRKNYLVWYQQKPGQSPKLLIYWASTRGSGVPDRFTGSGSGTDFTLTISSVQAEDLAVYYCKQSYNLRTFGGGTKLEIK
notes: Mouse hybridoma monoclonal antibody; also called clone #107C6
B2: monoclonal anti-IL-18 antibody clone 131H1 (antibody)
chain 1: QVQLKQSGPGLVQPSQSLSITCTVSGFSLTSYGVHWVRQSPGKGLEWLGVIWSGGSTDYNAAFISRLSISKDNSKSQVFFKMNSLQADDTAIYYCARSYDYDGRGYFDYWGQGTTLTVSS
chain 2: DIQMTQSPASLSASVGETVTITCRASENVYRYLAWYQQRQGKSPQLLVYSAKTLAEGVPSRFSGSGSGTQFSLKINTLQPEDFGTYYCQHHYNTPLTFGAGTKLELK
chain 3: B1 VL with L30F, D31N, R33K, V40A, Y42F, K51E, G61K, R101W
B3: Antibody 108F8 (antibody, V domains shown)
VH: B1 VH with E10D, L11S
VL: B1 VL
notes: Mouse hybridoma monoclonal antibody
B4: Antibody 132H4 (antibody, V domains shown)
VH: EVKLVESGGGLVKPGGSLKLSCAASGFTFSNYAMSWVRQNPAKRLEWVATISSGGANIYYPDSVKGRFIISRDNARNTLYLQMSSLRSEDTAMYYCARGDYFNHFWFAYWGQGTLVTVSA
VL: DVLMTQTPLSLPVSLGDQASISCRSSQSIVHSNGNTYLEWYLQKPGQSPKFLIYKVSNRFSGVPDRFSGSGSGTDFTLKINRVEAEDLGIYYCFQGSHVPWTFGGGTKLEIK
notes: as for B3
B5: Antibody 109A6 (antibody, V domains shown)
VH: EVQLQQSGAELVKPGASVKLSCTASGFKIKDTYIHWVIQRPAQGLEWIGRIDPANGNTIYGSKFQGKATLTADTSSNTAYIHLSSLTSGDSAVYYCAGYVWFAYWGQGTLVTVSA
VL: DVVMTQVPLSLPVSLGDQASISCRSSQRLVHSNGNTYLHWFLQKPGQSPKLLIYTVSNRFSGVPDRFSGSGSGTDFTLKISRVEAEDLGVYFCSQSTLVPWTFGGGTKLEIK
notes: as for B3
B6: Antibody 131B4 (antibody, V domains shown)
VH: B5 VH with L4V, V37L, I38K, A42E, L70I, H82Q, S91T, Y95F
VL: DAVLTQTPLSLPVSLGDQASISCTSSQSLVHSNGNTYLHWYLQKPGQSPKLLIYKVSDRFSGVPDRFSGSGSGTDFTLMITRVEAEDLGVYFCSQSSLVPWTFGGGTKLEVK
notes: as for B3
B7: recombinant human IL-18 Binding Protein (IL-18BP) (other)
chain: T1 sequence 2
notes: Biotinylated in the second Luminex screening step; also called human IL-18BP; hIL-18BP

Each binder was assayed against T1, IL-18/IL-18BP complex (assay: Luminex, third screening step against first).
Description: (§1) Mice were vaccinated aginst human interleukin-18 using a technology allowing immunization with properly folded proteins. […] Following immunization, B cells were isolated from spleen and hybridized following standard hybridoma technology. […] The screening was performed in 3 sequential and selective steps: […]

Row | Binder | fold inhibition (binding on IL-18 complexed to IL-18BP against binding on IL-18) [fold]
1 | B1 | > 500
2 | B2 | > 500
3 | B3 | > 500
4 | B4 | > 500
5 | B5 | > 500
6 | B6 | > 500

What follows are binders tested against T2, human interleukin-18 (IL-18), … (assay: Luminex, IL-18 on beads, hybridoma antibody).
Description: as §1

Row | Binder | fluorescence intensity (monoclonal antibody binding on IL-18) [fluorescence intensity]
7 | B1 | 26200
8 | B2 | 24800
9 | B3 | 25100
10 | B4 | 23800
11 | B5 | 25800
12 | B6 | 24800

The binders below were run against T2, human interleukin-18 (IL-18), … (assay: free IL-18 ELISA with plate-bound IL-18BP as capture; 400 pg/ml IL-18 in PBS with 5% BSA spiked with soluble IL-18BP at 0 to 10000 pg/ml; soluble IL-18BP competes with the capture IL-18BP).
Excerpt: Microplates can also be dried in a stabilizing solution allowing storage at room temperature and then be reconstituted by hydration when needed for assay.

Row | Binder | IC50 (read off the curve) [ng/mL]
13 | B7 | ~2

These binders were tested against T2, human interleukin-18 (IL-18), … (assay: free IL-18 ELISA with IL-18BP capture; 400 pg/mL IL-18 in PBS 5% BSA spiked with IL-18BP).
Description: After that, 20 μl sample volume containing biological fluid or standard is dispensed per microplate well. Non-diluted or diluted biological fluid can be but is not restricted to serum, urine, tear, saliva, bile, sweat, exhalation or expiration, sputum, bronchoalveolar fluid, sebum, cellular, gland, mucosa or tissue secretion, biopsy, homogenized tissue. […] The plates are sealed and then incubated under gentle shaking for free IL-18 capture. […] The microplate wells are the washed extensively with the appropriate buffer and then, 100 μl buffer developing mixture is added to each well. The developing mixture contains a streptavidin-conjugated enzyme such as peroxidase or alkaline phosphatase. […] The resulting reactions are then monitored with a microplate reader at an appropriate nanometer wavelength for absorbance or fluorescence of the produced reagent.

Row | Binder | molar ratio IL-18BP/IL-18 at which free IL-18 is near background [fold]
14 | B7 | ~15

These binders were tested against T2, human interleukin-18 (IL-18), … (assay: Luminex competition, antibody pre-bound to IL-18 beads, biotinylated IL-18BP as competitor is detected).

Row | Binder | fluorescence intensity (IL-18BP binding on IL-18 previously complexed to monoclonal antibody) [fluorescence intensity]
15 | B1 | 1390
16 | B2 | 1030
17 | B3 | 1290
18 | B4 | 1490
19 | B5 | 913
20 | B6 | 1660

The binders below were run against T1, IL-18/IL-18BP complex (assay: Luminex, beads linked to IL-18BP then complexed to IL-18, antibody binding).
Description: as §1

Row | Binder | fluorescence intensity (monoclonal antibody binding on IL-18 previously complexed to IL-18BP) [fluorescence intensity]
21 | B1 | 33
22 | B2 | 24
23 | B3 | 45
24 | B4 | 28
25 | B5 | 33
26 | B6 | 41
